B1: CD2-associated protein, residues 271 to 331; numbered along this chain, Q9Y5K6 (parent)
chain: KEYCRTLFAYEGTNEDELTFKEGEIIHLISKETGEAGWWRGELNGKEGVFPDNFAVQINEL

Variants of: B1
Experiment: abundance fitness (aPCA) (normalised: wild type 0, dead -1); higher = more abundant; growth selection in yeast, the domain comes from the species named
Conditions: Homo sapiens

Abundance fitness: each site, then its substitutions
E2: K -0.084, R -0.245, T -0.121, Q -0.05
R5: V -0.439, W -0.689, F -0.487, H -0.461, K 0.182, L -0.383, T -0.34, N -0.601, Q -0.37, A -0.426, D -0.764, P -0.978, G -0.868, S -0.49, E -0.154, I -0.527
A9: W -0.448, S 0.029, G -0.283, K -0.077, T -0.268, N -0.013, I -0.542, E -0.09, Y -0.309, C -0.129, Q -0.096, H -0.076, R -0.144, F -0.469, L -0.599, D -0.011, P -0.084, M -0.291
T6: P -0.605, K -0.607, S -0.103, A -0.014, G -0.528, W -1.15, R -0.682, L -0.88, V -0.844, H -0.695, I -0.5, N -0.926, F -0.889, Y -0.621, Q -0.68, C -0.614, D -0.963, M -0.474, E -0.698
F8: A 0.014, G 0.028, P -0.432, H -0.109, K 0.128, W -0.139, Q 0.074, V 0.004, L -0.064, D -0.311, R 0.12, Y -0.148
C4: H -1.07, E -1.09, F -0.007, A -0.591, M -0.23, L -0.046, G -0.707, R -0.62, S -0.791, I -0.113, T -0.714, Q -0.9, D -1.04, W -0.301, K -0.64, V -0.354
E11: K -0.095, Q -0.4, A -0.234, H -0.151, D -0.122, S -0.237, C -0.256, F -0.151, I -0.164, G -0.384, L -0.377, P -0.745, M -0.254, R -0.263, T -0.216
K1: R -0.277, H -0.489, A -0.529, S -0.229, N -0.384, I -0.245, D -0.364, M -0.154, C -0.629, E -0.083, L -0.296, Q -0.343, G -0.223, Y -0.656, V -0.332, F -0.337, W -0.543, T -0.394
Y10: A -0.686, N -0.831, G -0.544, F -0.182, Q -0.439, P -0.79, V -0.567, I -0.846, W -0.209, T -0.864, K -0.167, E -0.592, H -0.373, L -0.744, C -0.659, S -0.598
Y3: Q -0.775, H -0.278, W -0.661, E -0.567, D -0.555, V -0.537, S -0.26, T -0.608, K -0.748, G -0.611, P -0.75, L -0.131, F 0.001, N -0.292, A -0.369, M -0.372
L7: M -0.113, C -0.336, A -0.275, R -0.276, D -0.426, P -1.01, E -0.457, H -0.674, F -0.741, K -0.174, I -0.021, T -0.017, Y -0.762, G -0.57, S -0.107, V -0.088, W -0.539
